Molecular target: ZbmA, the zorbamycin (ZBM)-binding protein of Streptomyces flavoviridis ATCC21892 (unmodified, as cocrystallised with Cu(II)-ZBM) (Streptomyces flavoviridis ATCC21892)
Assay: crystal structure

“ZbmA, the zorbamycin (ZBM)-binding protein of Streptomyces flavoviridis ATCC21892 (unmodified, as cocrystallised with Cu(II)-ZBM) (natural protein)” showed a stoichiometry N of 2.
